Test in all cases: ITC
Background: Isothermal titration calorimetry measures the heat released or taken up as one component is titrated into another.

Test [1] concerns the target Heimdall_LC_3 TF-Vps4-MIT (Microtubule Interacting and Transport domain of Vps4 of Heimdallarchaeota_LC_3) (Heimdallarchaeota_LC_3).
Test [2] addresses Loki_GC14_75 TF-Vps4-MIT (Microtubule Interacting and Transport domain of Vps4 of Lokiarchaeum_GC14_75) (Lokiarchaeum_GC14_75).
Test [3] deals with Odin_LCB_4 TF-Vps4-MIT (Microtubule Interacting and Transport domain of Vps4 of Odinarchaeota_LCB_4) (Odinarchaeota_LCB_4).

In doi:10.1101/2020.05.05.080093 one finds dH1 (Sequential Binding Sites, first site), dH2 (Sequential Binding Sites, second site) and dH data, which are given here for 6 substances.

In test [1], “Heimdall_LC_3 TF-Vps2/24/46 (natural protein)” came in with a dH1 (Sequential Binding Sites, first site) of -473 kcal/mol and a dH2 (Sequential Binding Sites, second site) of 931 kcal/mol. The matching figures for “Heimdall_LC_3 TF-Vps20/32/60 (natural protein)”: 2780 kcal/mol and -2310 kcal/mol. In test [2], “Loki_GC14_75 TF-Vps2/24/46 (natural protein)” gave a dH1 (Sequential Binding Sites, first site) of -121 kcal/mol and a dH2 (Sequential Binding Sites, second site) of 422 kcal/mol. For the substance “Loki_GC14_75 TF-Vps20/32/60 (natural protein)”, in test [2], the dH was 1420 kcal/mol.

The substance “Odin_LCB_4 TF-Vps20/32/60 (natural protein)” displayed a dH in test [3] of 331 kcal/mol. On the same count and under the same terms, the result for Odin_LCB_4 Vps2/24/46 (natural protein) reads 392 kcal/mol.
